Laboratory results from the supplement of paper PMC5998384.

Key:
HeLa Kyoto [1] = experiment: thermal stability score vs G1/S (z-score of summed log2 fold changes over temperatures); higher = more thermally stable than in G1/S
HeLa Kyoto [2] = experiment: solubility change mitosis vs G1/S (difference of NP-40 vs SDS log2 ratios) (log2 ratio difference); higher = more soluble in mitosis
HeLa Kyoto [3] = experiment: melting temperature (median over replicates), in situ; higher = more thermally stable
HeLa Kyoto [4] = experiment: solubility in G1/S (NP-40 vs SDS abundance) (log2 ratio); higher = more soluble; conditions: cell cycle stage: G1/S
[5] = cell cycle stage: early G1 (4.5 h after nocodazole release)
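Wherever melting temperature (median over replicates), in situ is given: HeLa Kyoto cells synchronized by double thymidine or nocodazole block, proteins quantified by TMT10plex mass spectrometry, three independent biological replicates.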
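Wherever solubility change mitosis vs G1/S (difference of NP-40 vs SDS log2 ratios) is given: synchronized HeLa Kyoto cells (double thymidine block for G1/S, nocodazole release for mitosis), protein amounts in NP-40 versus SDS lysates quantified by mass spectrometry, three biological replicates.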
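Wherever solubility in G1/S (NP-40 vs SDS abundance) is given: HeLa Kyoto cells arrested at G1/S by double thymidine block, proteins quantified by TMT10plex mass spectrometry in mild NP-40 versus SDS extracts, three biological replicates.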
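Wherever thermal stability score vs G1/S (z-score of summed log2 fold changes over temperatures) is given: synchronized HeLa Kyoto cells, proteins quantified by TMT10plex mass spectrometry, three biological replicates, mitosis taken 0.5 h after nocodazole release, G1/S directly after double thymidine block.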

Sequence | thermal stability score (HeLa Kyoto [1]; [5]) | thermal stability score (HeLa Kyoto [1]; cell cycle stage: mitosis) | solubility change mitosis (log2) (HeLa Kyoto [2]) | melting temperature (HeLa Kyoto [3]; cell cycle stage: G1/S) | melting temperature (HeLa Kyoto [3]; cell cycle stage: mitosis) | solubility in G1/S (log2) (HeLa Kyoto [4])
MASLLAKDAYLQSLAKKICSHSAPEQQARTRAGKTQGSETAGPPKKKRKKTQKKFRKREEKAAEHKAKSLGEKSPAASGARRPEAAKEEAAWASSSAGNPADGLATEPESVFALDVLRQRLHEKIQEARGQGSAKELSPAALEKRRRRKQERDRKKRKRKELRAKEKARKAEEATEAQEVVEATPEGACTEPREPPGLIFNKVEVSEDEPASKAQRRKEKRQRVKGNLTPLTGRNYRQLLERLQARQSRLDELRGQDEGKAQELEAKMKWTNLLYKAEGVKIRDDERLLQEALKRKEKRRAQRQRRWEKRTAGVVEKMQQRQDRRRQNLRRKKAARAERRLLRARKKGRILPQDLERAGLV [SURF6] | -2.48 | -6.87 | 1.25 | 56.5 °C | 54.5 °C | -1.46
MASMAAAIAASRSAVMSGNRPLDDRERKRFTYFSSLSPMARKIMQDKEKIREKYGPEWARLPPAQQDEIIDRCLVGPRAPAPRDPGDSEELTRFPGLRGPTGQKVVRFGDEDLTWQDEHSAPFSWETKSQMEFSISALSIQEPSNGTAASEPRPLSKASQGSQALKSSQGSRSSSLDALGPTRKEEEASFWKINAERSRGEGPEAEFQSLTPSQIKSMEKGEKVLPPCYRQEPAPKDREAKVERPSTLRQEQRPLPNVSTERERPQPVQAFSSALHEAAPSQLEGKLPSPDVRQDDGEDTLFSEPKFAQVSSSNVVLKTGFDFLDNW [C1ORF198] | -0.542 | -1 | 0.253 | 51.6 °C | 53.2 °C | -0.228
MASNDYTQQATQSYGAYPTQPGQGYSQQSSQPYGQQSYSGYSQSTDTSGYGQSSYSSYGQSQNTGYGTQSTPQGYGSTGGYGSSQSSQSSYGQQSSYPGYGQQPAPSSTSGSYGSSSQSSSYGQPQSGSYSQQPSYGGQQQSYGQQQSYNPPQGYGQQNQYNSSSGGGGGGGGGGNYGQDQSSMSSGGGSGGGYGNQDQSGGGGSGGYGQQDRGGRGRGGSGGGGGGGGGGYNRSSGGYEPRGRGGGRGGRGGMGGSDRGGFNKFGGPRDQGSRHDSEQDNSDNNTIFVQGLGENVTIESVADYFKQIGIIKTNKKTGQPMINLYTDRETGKLKGEATVSFDDPPSAKAAIDWFDGKEFSGNPIKVSFATRRADFNRGGGNGRGGRGRGGPMGRGGYGGGGSGGGGRGGFPSGGGGGGGQQRAGDWKCPNPTCENMNFSWRNECNQCKAPKPDGPGGGPGGSHMGGNYGDDRRGGRGGYDRGGYRGRGGDRGGFRGGRGGGDRGGFGPGKMDSRGEHRQDRRERPY [FUS] | 0.878 | -3.18 | 0.333 | 56.1 °C | 54.8 °C | -0.295
MASPPRHGPPGPASGDGPNLNNNNNNNNHSVRKCGYLRKQKHGHKRFFVLRGPGAGGDEATAGGGSAPQPPRLEYYESEKKWRSKAGAPKRVIALDCCLNINKRADAKHKYLIALYTKDEYFAVAAENEQEQEGWYRALTDLVSEGRAAAGDAPPAAAPAASCSASLPGALGGSAGAAGAEDSYGLVAPATAAYREVWQVNLKPKGLGQSKNLTGVYRLCLSARTIGFVKLNCEQPSVTLQLMNIRRCGHSDSFFFIEVGRSAVTGPGELWMQADDSVVAQNIHETILEAMKALKELFEFRPRSKSQSSGSSATHPISVPGARRHHHLVNLPPSQTGLVRRSRTDSLAATPPAAKCSSCRVRTASEGDGGAAAGAAAAGARPVSVAGSPLSPGPVRAPLSRSHTLSGGCGGRGSKVALLPAGGALQHSRSMSMPVAHSPPAATSPGSLSSSSGHGSGSYPPPPGPHPPLPHPLHHGPGQRPSSGSASASGSPSDPGFMSLDEYGSSPGDLRAFCSHRSNTPESIAETPPARDGGGGGEFYGYMTMDRPLSHCGRSYRRVSGDAAQDLDRGLRKRTYSLTTPARQRPVPQPSSASLDEYTLMRATFSGSAGRLCPSCPASSPKVAYHPYPEDYGDIEIGSHRSSSSNLGADDGYMPMTPGAALAGSGSGSCRSDDYMPMSPASVSAPKQILQPRAAAAAAAAVPSAGPAGPAPTSAAGRTFPASGGGYKASSPAESSPEDSGYMRMWCGSKLSMEHADGKLLPNGDYLNVSPSDAVTTGTPPDFFSAALHPGGEPLRGVPGCCYSSLPRSYKAPYTCGGDSDQYVLMSSPVGRILEEERLEPQATPGPSQAASAFGAGPTQPPHPVVPSPVRPSGGRPEGFLGQRGRAVRPTRLSLEGLPSLPSMHEYPLPPEPKSPGEYINIDFGEPGARLSPPAPPLLASAASSSSLLSASSPASSLGSGTPGTSSDSRQRSPLSDYMNLDFSSPKSPKPGAPSGHPVGSLDGLLSPEASSPYPPLPPRPSASPSSSLQPPPPPPAPGELYRLPPASAVATAQGPGAASSLSSDTGDNGDYTEMAFGVAATPPQPIAAPPKPEAARVASPTSGVKRLSLMEQVSGVEAFLQASQPPDPHRGAKVIRADPQGGRRRHSSETFSSTTTVTPVSPSFAHNPKRHNSASVENVSLRKSSEGGVGVGPGGGDEPPTSPRQLQPAPPLAPQGRPWTPGQPGGLVGCPGSGGSPMRRETSAGFQNGLNYIAIDVREEPGLPPQPQPPPPPLPQPGDKSSWGRTRSLGGLISAVGVGSTGGGCGGPGPGALPPANTYASIDFLSHHLKEATIVKE [IRS2] | -0.748 | 0.717 | -0.0828 | 50.4 °C | 50.3 °C | -0.000472
MASPSLERPEKGAGKSEFRNQKPKPENQDESELLTVPDGWKEPAFSKEDNPRGLLEESSFATLFPKYREAYLKECWPLVQKALNEHHVNATLDLIEGSMTVCTTKKTFDPYIIIRARDLIKLLARSVSFEQAVRILQDDVACDIIKIGSLVRNKERFVKRRQRLIGPKGSTLKALELLTNCYIMVQGNTVSAIGPFSGLKEVRKVVLDTMKNIHPIYNIKSLMIKRELAKDSELRSQSWERFLPQFKHKNVNKRKEPKKKTVKKEYTPFPPPQPESQIDKELASGEYFLKANQKKRQKMEAIKAKQAEAISKRQEERNKAFIPPKEKPIVKPKEASTETKIDVASIKEKVKKAKNKKLGALTAEEIALKMEADEKKKKKKK [KRR1] | 3.32 | 4.5 | 0.79 | 51.3 °C | 50.1 °C | -1.22
MASQPNSSAKKKEEKGKNIQVVVRCRPFNLAERKASAHSIVECDPVRKEVSVRTGGLADKSSRKTYTFDMVFGASTKQIDVYRSVVCPILDEVIMGYNCTIFAYGQTGTGKTFTMEGERSPNEEYTWEEDPLAGIIPRTLHQIFEKLTDNGTEFSVKVSLLEIYNEELFDLLNPSSDVSERLQMFDDPRNKRGVIIKGLEEITVHNKDEVYQILEKGAAKRTTAATLMNAYSSRSHSVFSVTIHMKETTIDGEELVKIGKLNLVDLAGSENIGRSGAVDKRAREAGNINQSLLTLGRVITALVERTPHVPYRESKLTRILQDSLGGRTRTSIIATISPASLNLEETLSTLEYAHRAKNILNKPEVNQKLTKKALIKEYTEEIERLKRDLAAAREKNGVYISEENFRVMSGKLTVQEEQIVELIEKIGAVEEELNRVTELFMDNKNELDQCKSDLQNKTQELETTQKHLQETKLQLVKEEYITSALESTEEKLHDAASKLLNTVEETTKDVSGLHSKLDRKKAVDQHNAEAQDIFGKNLNSLFNNMEELIKDGSSKQKAMLEVHKTLFGNLLSSSVSALDTITTVALGSLTSIPENVSTHVSQIFNMILKEQSLAAESKTVLQELINVLKTDLLSSLEMILSPTVVSILKINSQLKHIFKTSLTVADKIEDQKKELDGFLSILCNNLHELQENTICSLVESQKQCGNLTEDLKTIKQTHSQELCKLMNLWTERFCALEEKCENIQKPLSSVQENIQQKSKDIVNKMTFHSQKFCADSDGFSQELRNFNQEGTKLVEESVKHSDKLNGNLEKISQETEQRCESLNTRTVYFSEQWVSSLNEREQELHNLLEVVSQCCEASSSDITEKSDGRKAAHEKQHNIFLDQMTIDEDKLIAQNLELNETIKIGLTKLNCFLEQDLKLDIPTGTTPQRKSYLYPSTLVRTEPREHLLDQLKRKQPELLMMLNCSENNKEETIPDVDVEEAVLGQYTEEPLSQEPSVDAGVDCSSIGGVPFFQHKKSHGKDKENRGINTLERSKVEETTEHLVTKSRLPLRAQINL [KIF11] | 6 | 5.17 | -0.143 | 48.2 °C | 49 °C | -0.0398
MASSNTVLMRLVASAYSIAQKAGMIVRRVIAEGDLGIVEKTCATDLQTKADRLAQMSICSSLARKFPKLTIIGEEDLPSEEVDQELIEDSQWEEILKQPCPSQYSAIKEEDLVVWVDPLDGTKEYTEGLLDNVTVLIGIAYEGKAIAGVINQPYYNYEAGPDAVLGRTIWGVLGLGAFGFQLKEVPAGKHIITTTRSHSNKLVTDCVAAMNPDAVLRVGGAGNKIIQLIEGKASAYVFASPGCKKWDTCAPEVILHAVGGKLTDIHGNVLQYHKDVKHMNSAGVLATLRNYDYYASRVPESIKNALVP [BPNT1] | -0.366 | -1.21 | -0.0215 | 57.5 °C | 57.9 °C | 0.211
